Results published in publication PMC10778422, “PI3Kδ Inhibition Potentiates Glucocorticoids in B-lymphoblastic Leukemia by Decreasing Receptor Phosphorylation and Enhancing Gene Regulation”.

Target: GR-AF1-DBD unmodified (Homo sapiens, UniProt P04150 27-506)
Experiment: EMSA; reference; Kd plotted in figure only; 5 mM Mg2+; EMSA: 20 mM Tris-HCl pH 8.0, 150 mM KCl, 10% glycerol, 5 mM MgCl2, 1 mM DTT, 1 mM EDTA, 200 ng/uL BSA, 40 ng/uL salmon sperm DNA; dsDNA diluted to 10 nM in this buffer; Hill fit; temperature not given
Conditions: protein: recombinant; tags: His6 (pET28a); chain copies: 2; label: Cy5; blunt

Sequence of GR-AF1-DBD unmodified (P04150 27-506): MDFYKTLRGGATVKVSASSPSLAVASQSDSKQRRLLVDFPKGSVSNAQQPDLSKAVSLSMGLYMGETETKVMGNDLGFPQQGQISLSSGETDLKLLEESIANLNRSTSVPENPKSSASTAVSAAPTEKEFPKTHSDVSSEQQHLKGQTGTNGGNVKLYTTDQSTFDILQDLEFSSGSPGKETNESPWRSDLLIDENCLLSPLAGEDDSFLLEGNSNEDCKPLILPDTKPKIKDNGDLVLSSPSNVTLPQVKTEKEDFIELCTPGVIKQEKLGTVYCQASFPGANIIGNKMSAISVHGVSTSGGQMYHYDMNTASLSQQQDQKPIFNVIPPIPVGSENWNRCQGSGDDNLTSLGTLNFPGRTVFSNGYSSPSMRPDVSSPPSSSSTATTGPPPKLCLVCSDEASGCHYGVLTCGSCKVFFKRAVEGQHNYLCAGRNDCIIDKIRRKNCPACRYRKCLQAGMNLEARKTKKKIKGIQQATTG

B1: consensus GR site (dsDNA)
DNA 1: GTACGGAACATCGTGTACTGTAC
DNA 2: GTACAGTACACGATGTTCCGTAC
Does B1 bind?
Result: binds
